Experimental data taken from PMC10786891, “Massively parallel profiling of RNA-targeting CRISPR-Cas13d”.

Molecular target: T1, EsCas13d, nuclease-dead (Eubacterium siraeum, UniProt B0MS50, R295A;H300A;R849A;H854A)
T1 sequence: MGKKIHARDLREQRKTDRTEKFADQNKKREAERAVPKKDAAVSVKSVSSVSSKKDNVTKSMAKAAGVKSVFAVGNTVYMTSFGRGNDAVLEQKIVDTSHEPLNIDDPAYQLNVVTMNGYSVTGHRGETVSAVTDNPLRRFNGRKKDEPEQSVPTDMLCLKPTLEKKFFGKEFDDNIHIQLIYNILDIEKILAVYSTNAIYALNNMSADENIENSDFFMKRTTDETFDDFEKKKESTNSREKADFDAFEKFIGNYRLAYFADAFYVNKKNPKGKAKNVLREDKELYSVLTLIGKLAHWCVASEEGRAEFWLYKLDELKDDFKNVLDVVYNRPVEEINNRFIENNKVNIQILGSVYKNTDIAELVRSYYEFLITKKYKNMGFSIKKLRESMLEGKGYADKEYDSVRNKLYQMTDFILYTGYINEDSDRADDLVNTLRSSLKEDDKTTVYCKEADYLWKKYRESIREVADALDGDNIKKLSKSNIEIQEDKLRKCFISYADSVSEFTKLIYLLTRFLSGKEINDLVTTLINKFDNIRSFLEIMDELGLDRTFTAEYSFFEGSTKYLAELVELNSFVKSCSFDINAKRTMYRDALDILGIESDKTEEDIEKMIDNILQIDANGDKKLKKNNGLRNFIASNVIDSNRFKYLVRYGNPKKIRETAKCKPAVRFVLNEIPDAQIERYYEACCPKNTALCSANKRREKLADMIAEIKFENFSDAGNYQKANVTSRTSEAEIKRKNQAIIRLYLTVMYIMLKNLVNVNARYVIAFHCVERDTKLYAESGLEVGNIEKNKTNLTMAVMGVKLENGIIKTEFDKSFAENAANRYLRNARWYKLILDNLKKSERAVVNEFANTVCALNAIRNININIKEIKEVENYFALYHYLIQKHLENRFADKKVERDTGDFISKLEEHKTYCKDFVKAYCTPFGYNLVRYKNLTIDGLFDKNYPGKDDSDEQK
Test: crRNA (strand 1, pre-loaded); Mg2+; 40 mM Tris-HCl pH 7.5, 150 mM NaCl, 6 mM MgCl2, 1 mM DTT, 0.1% Tween-20, 0.2 mg/ml BSA; 25 C; 10 min per concentration, then washed
Details: tags: His6-TwinStrep-SUMO cleaved; N-terminal SNAP kept (SNAP-Surface 488); label: 3' end held by stalled T7 RNA polymerase

B1: target 3 insU 3' of 22,insU 3' of 16 (mixed)
RNA 1: CACCCGUGCAAAAUUGCAGGGGUCUAAAACGACCUGAAUAUUUCAGAUCAAA
RNA 2: GGGAAUGGAUCCACAUCUACGAAUUCGUUUUUUGAUCUUGAAAUAUUCAGGUCUGCAGAUCGGAAGAGCACACGU
B1 gave a Kd of 58 ± 9 nM.

B2: target 3 G3C,A5U (mixed)
RNA 1: CACCCGUGCAAAAUUGCAGGGGUCUAAAACGACCUGAAUAUUUCAGAUCAAA
RNA 2: GGGAAUGGAUCCACAUCUACGAAUUCGUUUUUGAUCUGAAAUAUUCUGCUCUGCAGAUCGGAAGAGCACACGU
For B2, the Kd was 25 ± 2.6 nM.

B3: target 3 insA 3' of 4,insA 3' of 4 (mixed)
RNA 1: CACCCGUGCAAAAUUGCAGGGGUCUAAAACGACCUGAAUAUUUCAGAUCAAA
RNA 2: GGGAAUGGAUCCACAUCUACGAAUUCGUUUUUGAUCUGAAAUAUUCAGAAGUCUGCAGAUCGGAAGAGCACACGU
B3 gave a Kd of 21.1 ± 3.3 nM.

B4: target 3 U2A,C6A (mixed)
RNA 1: CACCCGUGCAAAAUUGCAGGGGUCUAAAACGACCUGAAUAUUUCAGAUCAAA
RNA 2: GGGAAUGGAUCCACAUCUACGAAUUCGUUUUUGAUCUGAAAUAUUAAGGACUGCAGAUCGGAAGAGCACACGU
With B4 the Kd was 15.6 ± 1.9 nM.

B5: target 3 insC 3' of 7,insC 3' of 3 (mixed)
RNA 1: CACCCGUGCAAAAUUGCAGGGGUCUAAAACGACCUGAAUAUUUCAGAUCAAA
RNA 2: GGGAAUGGAUCCACAUCUACGAAUUCGUUUUUGAUCUGAAAUAUUCCAGGCUCUGCAGAUCGGAAGAGCACACGU
In the case of B5, the Kd is reported as 97 ± 33 nM.

B6: target 3 insC 3' of 9,insC 3' of 7 (mixed)
RNA 1: CACCCGUGCAAAAUUGCAGGGGUCUAAAACGACCUGAAUAUUUCAGAUCAAA
RNA 2: GGGAAUGGAUCCACAUCUACGAAUUCGUUUUUGAUCUGAAAUACUUCCAGGUCUGCAGAUCGGAAGAGCACACGU
Work on B6 yielded a Kd of 113 ± 50.5 nM.

B7: target 3 G4C,A5U (mixed)
RNA 1: CACCCGUGCAAAAUUGCAGGGGUCUAAAACGACCUGAAUAUUUCAGAUCAAA
RNA 2: GGGAAUGGAUCCACAUCUACGAAUUCGUUUUUGAUCUGAAAUAUUCUCGUCUGCAGAUCGGAAGAGCACACGU
B7 showed a Kd of 42.5 ± 10 nM.

B8: target 3 insU 3' of 5,insC 3' of 3 (mixed)
RNA 1: CACCCGUGCAAAAUUGCAGGGGUCUAAAACGACCUGAAUAUUUCAGAUCAAA
RNA 2: GGGAAUGGAUCCACAUCUACGAAUUCGUUUUUGAUCUGAAAUAUUCAUGGCUCUGCAGAUCGGAAGAGCACACGU
With B8 the Kd was 10.9 ± 1.1 nM.

B9: target 3 insC 3' of 22,insU 3' of 22 (mixed)
RNA 1: CACCCGUGCAAAAUUGCAGGGGUCUAAAACGACCUGAAUAUUUCAGAUCAAA
RNA 2: GGGAAUGGAUCCACAUCUACGAAUUCGUUUCUUUGAUCUGAAAUAUUCAGGUCUGCAGAUCGGAAGAGCACACGU
With B9 the Kd was 19.1 ± 3.15 nM.

B10: target 3 G4U,C6G (mixed)
RNA 1: CACCCGUGCAAAAUUGCAGGGGUCUAAAACGACCUGAAUAUUUCAGAUCAAA
RNA 2: GGGAAUGGAUCCACAUCUACGAAUUCGUUUUUGAUCUGAAAUAUUGAUGUCUGCAGAUCGGAAGAGCACACGU
Work on B10 yielded a Kd of 68.5 ± 15 nM.

B11: target 3 C1A,A5C (mixed)
RNA 1: CACCCGUGCAAAAUUGCAGGGGUCUAAAACGACCUGAAUAUUUCAGAUCAAA
RNA 2: GGGAAUGGAUCCACAUCUACGAAUUCGUUUUUGAUCUGAAAUAUUCCGGUAUGCAGAUCGGAAGAGCACACGU
B11 showed a Kd of 58.5 ± 10 nM.

B12: target 3 insC 3' of 5,insC 3' of 4 (mixed)
RNA 1: CACCCGUGCAAAAUUGCAGGGGUCUAAAACGACCUGAAUAUUUCAGAUCAAA
RNA 2: GGGAAUGGAUCCACAUCUACGAAUUCGUUUUUGAUCUGAAAUAUUCACGCGUCUGCAGAUCGGAAGAGCACACGU
B12 gave a Kd of 11.6 ± 0.65 nM.

B13: target 3 G3U,U7A (mixed)
RNA 1: CACCCGUGCAAAAUUGCAGGGGUCUAAAACGACCUGAAUAUUUCAGAUCAAA
RNA 2: GGGAAUGGAUCCACAUCUACGAAUUCGUUUUUGAUCUGAAAUAUACAGUUCUGCAGAUCGGAAGAGCACACGU
For B13, the Kd was 37 ± 4.5 nM.

B14: target 3 U2A,C6U (mixed)
RNA 1: CACCCGUGCAAAAUUGCAGGGGUCUAAAACGACCUGAAUAUUUCAGAUCAAA
RNA 2: GGGAAUGGAUCCACAUCUACGAAUUCGUUUUUGAUCUGAAAUAUUUAGGACUGCAGAUCGGAAGAGCACACGU
For B14, the Kd was 4.55 ± 0.43 nM.

B15: target 3 insC 3' of 22,insG 3' of 6 (mixed)
RNA 1: CACCCGUGCAAAAUUGCAGGGGUCUAAAACGACCUGAAUAUUUCAGAUCAAA
RNA 2: GGGAAUGGAUCCACAUCUACGAAUUCGUUUCUUGAUCUGAAAUAUUCGAGGUCUGCAGAUCGGAAGAGCACACGU
With B15 the Kd was 22.1 ± 2.45 nM.

B16: target 3 insA 3' of 22,insG 3' of 22 (mixed)
RNA 1: CACCCGUGCAAAAUUGCAGGGGUCUAAAACGACCUGAAUAUUUCAGAUCAAA
RNA 2: GGGAAUGGAUCCACAUCUACGAAUUCGUUUAGUUGAUCUGAAAUAUUCAGGUCUGCAGAUCGGAAGAGCACACGU
B16 gave a Kd of 48 ± 7 nM.

B17: target 3 A18G (mixed)
RNA 1: CACCCGUGCAAAAUUGCAGGGGUCUAAAACGACCUGAAUAUUUCAGAUCAAA
RNA 2: GGGAAUGGAUCCACAUCUACGAAUUCGUUUUUGGUCUGAAAUAUUCAGGUCUGCAGAUCGGAAGAGCACACGU
B17 showed a Kd of 19.1 ± 1.7 nM.

B18: target 3 C1A,A18G (mixed)
RNA 1: CACCCGUGCAAAAUUGCAGGGGUCUAAAACGACCUGAAUAUUUCAGAUCAAA
RNA 2: GGGAAUGGAUCCACAUCUACGAAUUCGUUUUUGGUCUGAAAUAUUCAGGUAUGCAGAUCGGAAGAGCACACGU
With B18 the Kd was 48.5 ± 14 nM.

B19: target 3 insC 3' of 21,insC 3' of 3 (mixed)
RNA 1: CACCCGUGCAAAAUUGCAGGGGUCUAAAACGACCUGAAUAUUUCAGAUCAAA
RNA 2: GGGAAUGGAUCCACAUCUACGAAUUCGUUUUCUGAUCUGAAAUAUUCAGGCUCUGCAGAUCGGAAGAGCACACGU
B19 gave a Kd of 80 ± 30.5 nM.

B20: target 3 C1U,A18G (mixed)
RNA 1: CACCCGUGCAAAAUUGCAGGGGUCUAAAACGACCUGAAUAUUUCAGAUCAAA
RNA 2: GGGAAUGGAUCCACAUCUACGAAUUCGUUUUUGGUCUGAAAUAUUCAGGUUUGCAGAUCGGAAGAGCACACGU
For B20, the Kd was 43 ± 7 nM.

B21: target 3 A9G,A18G (mixed)
RNA 1: CACCCGUGCAAAAUUGCAGGGGUCUAAAACGACCUGAAUAUUUCAGAUCAAA
RNA 2: GGGAAUGGAUCCACAUCUACGAAUUCGUUUUUGGUCUGAAAUGUUCAGGUCUGCAGAUCGGAAGAGCACACGU
B21 gave a Kd of 26.4 ± 2.95 nM.

B22: target 3 U2G,C6U (mixed)
RNA 1: CACCCGUGCAAAAUUGCAGGGGUCUAAAACGACCUGAAUAUUUCAGAUCAAA
RNA 2: GGGAAUGGAUCCACAUCUACGAAUUCGUUUUUGAUCUGAAAUAUUUAGGGCUGCAGAUCGGAAGAGCACACGU
Work on B22 yielded a Kd of 2.4 ± 0.255 nM.

B23: target 3 C6G,U7C (mixed)
RNA 1: CACCCGUGCAAAAUUGCAGGGGUCUAAAACGACCUGAAUAUUUCAGAUCAAA
RNA 2: GGGAAUGGAUCCACAUCUACGAAUUCGUUUUUGAUCUGAAAUAUCGAGGUCUGCAGAUCGGAAGAGCACACGU
B23 showed a Kd of 60.5 ± 5 nM.

B24: target 3 insC 3' of 3,insA 3' of 3 (mixed)
RNA 1: CACCCGUGCAAAAUUGCAGGGGUCUAAAACGACCUGAAUAUUUCAGAUCAAA
RNA 2: GGGAAUGGAUCCACAUCUACGAAUUCGUUUUUGAUCUGAAAUAUUCAGGCAUCUGCAGAUCGGAAGAGCACACGU
B24 gave a Kd of 9.35 ± 1.15 nM.

B25: target 3 U2G,U8G (mixed)
RNA 1: CACCCGUGCAAAAUUGCAGGGGUCUAAAACGACCUGAAUAUUUCAGAUCAAA
RNA 2: GGGAAUGGAUCCACAUCUACGAAUUCGUUUUUGAUCUGAAAUAGUCAGGGCUGCAGAUCGGAAGAGCACACGU
In the case of B25, the Kd is reported as 47 ± 14.5 nM.

B26: target 1 insG 3' of 19,insU 3' of 13 (mixed)
RNA 1: CACCCGUGCAAAAAUGCAGGGGUCUAAAACUGAGCGGAUAACCUCUCUAUGG
RNA 2: GGGAAUGGAUCCACAUCUACGAAUUCGUACCAUGAGAGAGUGUUAUCCGCUCACCGAGAUCGGAAGAGCACACGU
Work on B26 yielded a Kd of 51 ± 20 nM.

B27: target 1 insG 3' of 16,insG 3' of 4 (mixed)
RNA 1: CACCCGUGCAAAAAUGCAGGGGUCUAAAACUGAGCGGAUAACCUCUCUAUGG
RNA 2: GGGAAUGGAUCCACAUCUACGAAUUCGUACCAUAGAGGAGGUUAUCCGCGUCACCGAGAUCGGAAGAGCACACGU
With B27 the Kd was 13.7 ± 0.7 nM.

B28: target 1 G12A,A18U (mixed)
RNA 1: CACCCGUGCAAAAAUGCAGGGGUCUAAAACUGAGCGGAUAACCUCUCUAUGG
RNA 2: GGGAAUGGAUCCACAUCUACGAAUUCGUACCAUUGAGAGAUUAUCCGCUCACCGAGAUCGGAAGAGCACACGU
In the case of B28, the Kd is reported as 25.2 ± 2.7 nM.
